Measured values as given in patent US20240026407A1, “MODIFICATION OF SAPONINS” (GLAXOSMITHKLINE BIOLOGICALS SA, priority 2020, published 2024).

B1: 1042 (protein, listed as Streptomyces scabiei)
chain: MNPTAPAEQTPTDITVSVTGLRTADDSGLVATAHAMPRLSWSLTGTRPGILQHAYEIQVSGAPSFDDTTSSGQVESGTVTDHPWPAQPLSSRETRHWRVRVRTDRGWTRWSDPARVEGALLDAVDWAARPVHVPSDRGRPSPGPVPLLRREFHLPAEPVSARLYVTSLGVHRTTLNGRPVSADLLEPGWTSYPDRLLYATYDVTGLLRPGPNALAAAVGDGWFRGHLTWHKNRDVYGDTTGLLAQLEVDLTDGTRVTVITDGRWKGGYGDLLSADLYDGCERDLRAEPHGWQLPGFADDGWEPVAVLPLPEGLGQRAHPPVRVVRTVRPRLRTLADGTIAVDAGENVTGRLRIRADGRPGGTVTVRHAEVLDGDGRLLTSILRGARATDRYTLAEGPADLTPEFTFHGFRYAEIDASPDVSVEAVEVEVVAGDLRRIGEFHCSDERVNTLYANVVRSQRGNFLAVPTDCPQRDERLGWTGDIMAFAPTACATFDSASFLDSRLTDLRIQQRPDGAVPMVVPDVPLGELPPAELPFAGAAAGWGDAATVVPAALFEAYGQPHLLERHYTAMRAWVEFTVAHLDEDGTWSGNAQLGDWLDPAAPPENPAAATTDSGYVATAFVAHSARLLADAARELGFPEDADRYTALHRRTAEAAWRKWGDHARTTQTGCALALEFGIAPAGERAEVGKALASLVRANGGRIATGFLGTPFVLPALGDTGHVAEAYELLLNPECPGWLHQVSRGATTMWERWDAIGPDGTVDVENAGTMLSFNHYAYGAVASWLYRSVAGLRPASPGYRTLDIAPRPGATLTSAEAAVDTPYGTASVAWSIGDGSLTVRAVLPPGTTGRFSAPEGWTCTEPVDALASGSHVLSLRPLTRP
B2: 1008 (protein, listed as Pedobacter heparinus)
chain: MNLKTTGIVLVLSTIVCFPCIAQKNLEQSFKVTPDTIQTSVYWYWMSDNISKDGVVKDLYAMKSAGINRAFIGNIGYETTPYGKVKLFSAEWWDIMHTALKTATNLNIEIGVFNSPGWSQSGGPWVKPAQAMRYLASTKANFVGPKQLNVQLEKPKGYFQDVRVIAYKTPKAYGNSIAVHKPKLSSSISVQNINNLIDGSENTTVDIPATESITIDLETSSSFTARSLVVYPAHKGLNVNVELQVKKNKEYVSVKTFSVNRTNSNLHVGFKPYGPVAVSIPPTIGHSFRLVFGKSGGFGLAEVVLSQTPVVESYTEKTLAKMFQSPLPYWNEYQWPDQPLIDDLSLVIDPKTVIDITTFMNAEGQLKWDLPAGNWTIMRTGMLPTGVKNGPASPEGTGLEIDKMSKEHVANHFDAFMGELLRRIPAADRKTWKVVVQDSYETGGQNWTDDMIEKFKASFHYDPLPYLPVIQGEVVGDQNQSDRFLWDLRRFIADRVAYDYVGGLRDISHKHGLTTWLENYGHWGFPGEFLQYGGQSDEIGGEFWSEGELGNIENRAASSAAHIYGKTKVSAESFTAGDKPYQRYPYIMKQRGDRFFTEGINNTLLHLFIQQPSEDKVPGINANFGNEFNRHNTWFSYIDLFTGYLKRTNFMLQQGKYVADVAYFIGEDAPKMTGITDPALPAGYSFDYINAEVIQTRMKVKDGRMVLPDGMSYKLLVLPKLKTMRPELLAKIKELVAQGANILGPAPERSPSLANFPEADAKVKRMVTELWGNVNGTTIKTRKLGKGTIMSGMDMKLALNALNILPDFKTNTTDPVLFIHRSGPQAELYFISNQSEKQITFSPTFRSVDMQPELWDPVTGKTRVLSELSANGSSTTIPLTLEPLQSIFVVFRNPLVASPIRAINFPEAKTIEEINGPWKVTFNSQMRGPEKPVMFDTLIDWTKRPEESIKYYAGTAVYSNSFRATKPVKGERIYLYFSEVSVMAKVKVNGTDVGGMWTAPWRVDITDAIISGVNTLDISVVNNWVNRLVGDSKLPEAKRKTWTNNNPYTPDSKLVPSGLTGKVVVKTIKY
B3: 1023 (protein)
chain: MNLFLSIFLFCSPLFLLGQSELNYPELLYPPQAIKANWVSHPDIQGGEDRIVLFRNEWMVDDPSEAFIINISADNHYFLYVNGNLVTHGPQLSDIRHWKYETIDLKTYLKTGKNLIAIKVVNYGKRRFYGMQSIFTSLMVNGATENAKVLNTSGTDDGWKCSIDDSYRALEVNWRGGGPKSIVGGFYANNPTDFVDKNHYPTDWEQPDFDDSDWVDTQFFEGASSMGGSMAYLLEPRNLPLLTWEKEGIGHTVRTSDIDVSEFPVSGKTVVPEHKKIRFLIDQKYVTNGFPELIFSKGKNAHIKIKYAENLFGPKNTKGDRNIIKGKELLGYYDHVVSNGKERQKFTPNWMRTFRFVEFEIETKGQELVLDSFSNYRSRTHIPSIARFSSNNETYNAIFDICKRTVDICTQDYFLSDAYYETMQYVGDTKIHALLWQAMSGNLAHTKNAIEQFHRSRDADGNILGAYPLRSTFIYPTYSLVWVDMVYDYYQLTNDTDFINTYKDGIIHTLAGFEKNMNELNLVNETQYRYFVDWYTGPNNGGGTATKNNGKNSAVVSLHYVHALQNAARLFKAIGDKHTADTYLDRATAIKSSVYKLCFDPNKNIFAERPDKTVYDQHTNIMAVLTDAIAESEQKALLSNILNDPKLLQATYYYRYYLFEAIKKVGAPELFDLAQRPWQAMIDNHMTTTLERFESDKKPTRSEVHPWSASPAYFYFNYLAGIKSVKNDFQEIEIAPVFGILEDMEGLLPTSKGNILFHLKKIRSKLSAEIIVPKEMSGELVWNEKHIPLKHGQHTYILK
modifications: Zobellia galactanivorans
B4: 1016 (protein, listed as Olsenella profusa)
chain: MRATNLTVACLTNPLGIDVRCPELAWIDEDGLSQSAYQVECKDGAGATLWDTGKVASASMRIAWPGAALASRERVTWRVRLWDDGDACGPWSEFASIEEGLLSADDWCARWISGNYDVPTPRAGALGNFRQMVAAMRPASPDQVVTEPILEGRYPVDCFCRAFVVGKAPVRARLYITACGLYEARIDGEKVGDLCMAPGHTDYRKRVQYQTYDVTAALATGAHELTVQLADGWYRGSCGAWGLLNQYGTQTKLLAQLEVTYADGHVDCVATDTDWQWSGDGPILFADNKDGEMVDATRAPSYAGHARDARHDVAPTASNNVPITMHERFSPAPALAPNGRLLFDLGQNIAGWVELDFDAHESQHVLLRCGEMLDADGNLTLKNIQCSREGFATPLQQVEYVCREGHNHYRTTFCVFGFRYVEVETNVQLGEGSLTAIALYSDMRQTGSFECSNELLNRFFESTVWSTKGNSLDVPTDCPTRERHGWSGDAQIFFETLSYLFDCRSFERKWLHDLFDWQKRDGRLPQVAPAGGVDSYMRFLDGSVGWADAGILIPYRYWRHYGDASVLAELYDGMRRYAEFMIRRCGRRGPFSKRVGIHGEAKKYLVNMGQCYGEWAEPADVHKMDWKDTVAPHPEVATAYTDYVLGCMAQIARELGHEEDEARYRQYSEGCRLAYQELSRLPEFSLDTDRQARLVRPLAFGLLDPQQTAYARKRLVKACESYGWRLGTGFLSTPLILDVLAKYDLDAAYRLLENEEMPGWLFMPKMGATTVWESWEGTQAQGGIASLNHYSKGAVCAWLFRVMCGIAPDGERHVTVAPRPGGRFAYAKAGYESPCGFVGCGWQRVEDGWRFAVEVPANCAATVVLPDGSTREVGAGVHEFECVARAAREG
B5: 1034 (protein, listed as Paenibacillus mucilaginosus)
chain: MSSTQTLRGRFDDPPAEYRAAPFWAWNDALREEEVLRQIGEMKEGGMGGFFIHSRDGLETEYMGTEWMKLVRAAVEEAEAQGMQAWLYDEDRWPSGFAGGLVQARGGDDYRAKGLTLEVVPAEKEGSGRLAERLADGAPVALFRAVIAERSLLSCTRLDLQVMFGSRMEAAAAAENTLLPPILEPQQEQHQDHETVYLLFRVEVSERSEWFNGEAPPDNLNPDTVRTFIELTYEAYEREVGGSFGSAVRGVFTDEPSIHDRHCRFTPGRAWLPWSGSFPAFYRERRGSDVLDTAPYLFFDGSLSPQARHDYWRTVTERFSEAYSGQIGEWCGSRGLAFTGHYLWENNLGTATRVCGAVMPNYRYQHVPGIDMLGEQTNETITVKQCTSVAHQYGRKVVLSETYGCTGWGFTFEGQRWVGDFQYVLGVNLRSQHLALYSIKGCRKRDYPPVFHYNTSWWKFSRVIEDYYARLSAVLTEGRPIRDVLVLHPSTTAWSMVGTGPYGFPARGKDRDVSAANRYGHEFNAFLRGLLGAHYDFDLGDEIILSEIGSVRQTEQTARLAVGMAEYRTVVLPEIRTMLRSTFLLLTGFLEAGGRVVAVGPPAELLEGRPAPELSRLYGHPGLTVVPDGAAAAAALESFLPRRVSIRHQAPQHTEPAEADKMLYMLQKADNRRVLFIVNNDREEEQQVTITLEGEGLLEEWNALTGEVTDVLVRRSQEGLLEFDASFGPADSKLYVLHTDRAPETGLNASPASEAPLLLVDPGTIRMELLQEPAGFTRTAPNALTLDRCSYRLRDGDWSGEMDVWQAQRAVREALGMRQVYGNGLEQRYRWVHEPHPGDGTPAAFRFDFEVTDVPEGEIHLVVESAGEYELGLNGNPVPGVPDGWFLDRSFDRVPLSGLRAGRNELVLSCRYHQRMEVEDLYLTGDFGVDEGRRITREPEKLQLGDWCLQGYPHYAGSMVYRFTVDGGLTPGGPAWLELGSFQAVTAEVRINRETAGHVPWRAANRLDISGRLRQGENLIEVEVMGSPRNLLGPFHHTSGDPSITSWSSFRKEGGDYSPAYRLRPYGLFGGIRLYRVQEQGGKGG
B6: 1036 (protein, listed as Bacteroides cellulosilyticus)
chain: MNRYILFFFLILSTLTTLRAQQSRLVEVGNGYSQTSVNTTVFRNNSLVTQGDEQYISYYDGDGYLVLGKRKLDSDQWTLKRTQYKGNVKDAHNIISMMLDGEGYLHLSFDHHGHKLNYCRSTAPYTLELGDKEPMTGVDEGNVTYPEFYPLNGGDLLFVYRSGSSGRGNLVMNHYSVKEKKWNRVQDVLIDGEDQRNAYWQLYVDEQGTIHLSWVWRETWHVETNHDLCYARSYDNGVTWYKANGKKYDLPIRYNNAEYACRIPQNSELINQTSMSADASGNPYIATYWRDPDSEVPQYRIVWHDGQMWHNRQVSNRHTPFSLKGGGTKMIPIARPRIVVDGGEIFYIFRDEERGSRVSLAHAAAVGVGKWTFTDLTNFPVDAWEPSHDTELWKQKRRLHLFVQHTKQGDGERRVEFAPQPVYVLEVVKPKGD

Columns and labels:
Format in all cases: biochemical, Quillaja saponaria
[1] = Experiment 6-1: screening of rhamnosidases for derhamnosylation of saponins in treated bark extract (2%), desglucosyl-QS-17 2134 to QS-21 1988 (PAR %); conditions: TBE 2%, pH 7.5, 30 degC, 18 h; TIC peak area ratio percent, LCMS/MS; negative controls 2.719, 2.158
[2] = Experiment 6-1: screening of rhamnosidases for derhamnosylation of saponins in treated bark extract (2%), QS-17 2310 to QS-18 2164 (PAR %); conditions: TBE 2%, pH 7.5, 30 degC, 18 h; TIC peak area ratio percent, LCMS/MS; negative controls 3.061, 2.429
[3] = Experiment 6-1: screening of rhamnosidases for derhamnosylation of saponins in treated bark extract (2%), QS-17 2296 to QS-18 2150 (PAR %); conditions: TBE 2%, pH 7.5, 30 degC, 18 h; TIC peak area ratio percent of rhamnosylated starting saponin to derhamnosylated product, LCMS/MS; negative controls 4.876, 5.225
[4] = Experiment 6-1: specificity of rhamnosidases towards other rhamnose residues (C3 saccharide rhamnose, C28 saccharide rhamnose); conditions: TBE 2%, pH 7.5, 30 degC, 18 h; LCMS/MS; negative controls 0.18, 0.17

Molecule | Peak75 (PAR %) [1] [%] | Peak57 (PAR %) [2] [%] | QS-17 (PAR %) [3] [%] | ratio PP/QS-21 [4]
B1 | 2.599 | 3.383 | 4.871 | 0.18
B2 | 2.538 | 2.658 | 4.834 | 0.17
B3 | 2.120 | 2.889 | 4.916 | 0.17
B4 | 2.498 | 3.326 | 4.872 | 0.18
B5 | 2.389 | 3.034 | 4.827 | 0.17
B6 | 2.444 | 2.852 | 4.834 | 0.16
